The DeepSol protein solubility set

Assay: soluble on expression in E. coli; label from the status in PepcDB or PDB records

Q: Which “soluble on expression in E. coli” value does the source give for “MDAQLEWASSLVPKRQLQQQQQQQEQQQQQQQDFHKDQLMTVGMRIRQRVDQGYASRTPSTSDASLQPGVIRDYSSVIVPQFTRSPLPTANSLPPMLINQRTMSTEASSLEKWDVAEPAAEHETMVNGSKRRL” here?
A: soluble

Q: Which “soluble on expression in E. coli” value does the source give for “MDASLTGAVAELGTSKAAARIRAAAIEVFAAKGYGATTTREIAASLDMSPGAVYPHYKTKESLLYAISLEGHHSVLAAITAADFPDIAAPDRLMSTVTAYVTWHADNRASARVGQYELRSLSPEHFAIIADIRRSTTKVFTRIIEAGATAGDFHPFDIEAAALAITSLGIDVSRWFPSHTYSDPRIIAARYVELALRMVGCADRQPLDKPS” here?
A: soluble

Q: For “MDAWFEDTAMGRYVAKLEQDFFGRYLDSYRFSGMCAVQVGGPWLSLSEDVVCVPRDMSMSAENMALADVSADMLLFPHTLEGGVPSQILSEAHRILKPCGRLMLTGFNPYSLWGFSRWFDGERLPEKRFCLPLPELKRRLADVGFDIEFGKFMVYLPPVSSLGQIRFWRFMEKAGDRWWPQCAAVYGLVLVKRAAGVTPLPAWDGYLGGKALAAGAARVAD”, which “soluble on expression in E. coli” value is on record?
A: not soluble

Q: For “MDDGDTADDIMDATYRALCTHGYADLTMQDIADESDKSKAALHYHYDSKHDLLCAFLEYLYDGFVDRIEDPAGETPHERLLSLIDSVLDKPDDGSEEFGTAILEIRAHAPYEPGFRERLTKFDDYLVDELEVILEDGIADGTFKSDLDADETAQFIVTVLTGAATERVTTGRPVKCTRRMLTEYVETHLLDGQQEVTA”, which “soluble on expression in E. coli” value is on record?
A: not soluble

Q: With “MDDLADCREVFAYFDSKGDERISVQQVGDVLRALGQNPTEAEIHKCVGSFDREARLSFEDFVPIFQSVSKNREKHTVEEFVEGLSHFDKEGNGMINVAELRHLLTTLGERLSDEDVDQLLSGHNDSHGNVNISDFVRAVMNS” as the sequence, how does the “soluble on expression in E. coli” value read?
A: soluble

Q: With “MDDSREESQFIVDDVSKTIKEAIETTIGGNAYQHDKVNNWTGQVVENCLTVLTKEQKPYKYIVTAMIMQKNGAGLHTASSCYWNNDTDGSCTVRWENKTMYCIVSVFGLAV” as the sequence, how does the “soluble on expression in E. coli” value read?
A: soluble

Q: With “MDEIAIDPSINQDMSASEIYRFEGTLYTLPFVTKNNDISWNKSRDEYKSECRTFPPLYKSLFDRQKCGKVRFSPPLSLEQNVNAHLKGSSSQHMTTILQGVEDAGYVFPDIDMLVTTEVLNTIAGSIFNQEKSWKLRAYVTQVQGKNMVIVCDDDFEHHQRISSTQSDFPIERTEALNFAHSICVRDGTRELNNSLHGSEVVVSTIKFREKSVKMIVIGEVDLVTGKNNKSLNTIVATGRTARASFGHNVESRVDSLDYLWSRCFWLGQRLCLVGMRSTEEAPVSSAYLYSLYPPTLKERKRTNYRVDVATTCVAQVMIRLREEAAKMPHANWIIEYTGRDKEFDPAFIKINVAPDTHSFLLVQEYWHIEKEAFESAEEQKKAEDQNVVEPEKIVRTFHQMKRLPGVRKSGTIAKQFQKIINSMSS” as the sequence, how does the “soluble on expression in E. coli” value read?
A: not soluble

Q: For “MDEIWFAGIDLGGTTIKLAFINQYGEIQHKWEVPTDKTGDTITVTIAKTIDSKLDELQKPKHIIKYIGMGAPGPVDMAAGVVYETVNLGWKNYALKNHLETETGIPAVIENDANIAALGEMWKGAGDGAKDVILVTLGTGVGGGIIANGEILHGINGAGGEIGHICSIPEGGAPCNCGKTGCIETIASATGIVRIAKGKIANAKKTTRLKATEQLSARDVFEAAGENDEIALEVVDYVAKHLGLVLGNLASSLNPSKIVLGGGVSRAGELLRSKVEKTFRKCAFPRAAQAADISIAALGNDAGVIGGAWIAKNEWLKHQNCLEHHHHHH”, which “soluble on expression in E. coli” value is on record?
A: soluble

Q: Which “soluble on expression in E. coli” value does the source give for “MDELFTESAKAVLAIAQEEAKYFRHQSVGSEHLLLALVLEPNGIAGKTLRQLNTDTEDIREEIEHLSGYGTMQSPMGNNNLYLPYSPRAKQIFAYAGDEAKRLGAQKIGTEHLLLGLLRDEEILASRILVNLGLSLSKMRQLLLKKMG” here?
A: soluble

Q: Which “soluble on expression in E. coli” value does the source give for “MDFESNGAMMEYCKSTGRTYCAFSIQQSSKLLGTVVLELFTDIAPATCANFIKYIKDGYQGTPLHRIVPNGWVQGGDIVDGSGKGDPGFVLPDETYSVKHDAPGVLGMATGGQPHTANTQFYISLSPLPFLDGKRVAFGRVLNKQSLENLLALQTLPTFQNERPVPDVVIASCHVIYNPNS” here?
A: not soluble

Q: Which “soluble on expression in E. coli” value does the source give for “MDFHRALSALFTNQAAVQPLLGSLGFPFNDGTSILTTALAAQSGGKKLDTPLGILPFDSLPTTNLLTPTKKIKLEDELCASPVSSRSSTVSSSHFSSPQRSPSRKMSVPIPEEKKDSAYFERRRKNNDAAKRSRDARRQKEEQIASKAHALERENMQLRGKVSSLEQEAAQLRFLLFSKISPANSEVSCESNDSTETNDSNDSKSDSTIEV” here?
A: not soluble

Q: Which “soluble on expression in E. coli” value does the source give for “MDGAATKFFRPWESHGSYHHSLPSISPPDSPASTSASSSSSSIGANELTTKRRKCERCTCPNCKAIKHGDRGSQHTHLCSVPGCGKTYKKTSHLRAHLRKHTGDRPFVCDWFDCGKRFDRSDQLIRHKRTHTKEYRFACKFCIRQFSRSDHLQQHLTSVHNIVVVD” here?
A: not soluble

Q: With “MDGDGSSFEQFIMPPSALDRLASLHIEYPMLFQLSNVSVEKTSHCGVLEFTADEGLVYLPYWMMQNMSLEEGDVMQVKNISLVKGTYIKLQPHTQDFLDISNPKAILETTLRSYSCLTTGDTIMVPYNNKQYYINVVEAKPSSAVSIIETDCEVDFAPPLDYKEPEKPQKLTPSNKRPLQVKEEEEPASKVPKFTPFTGSGKRLDGKAQTQTEPEDTKQQEKPTENGKDDEKLSVTTPRQISGKLVFGSNSKSAAKETAKVDDPKNIVQESSTKSDEAKFKVFTGKKYSLNG” as the sequence, how does the “soluble on expression in E. coli” value read?
A: soluble

Q: For “MDGNDLIRLEMKRLGPMAVEKGDLLLLSGDNNADASMWDPNSNGPKSYQSQVAGLRLAAGGVFHVLTLKSAGEATLSIHFVFPSRTDPGRQVQMWVRRVGRSFQGAGSGYVLMNMRHVVNVQGKTIHTQTGNTVCLDDITDDCYLDREGRFVFVKSPVGSPPSMIAVGYTNSDGTQDLAELILTESACPEMLHVFSTLEFPD”, which “soluble on expression in E. coli” value is on record?
A: soluble

Q: For “MDGPKPNLASAASMESLNSVSSEATNPSQVRTLFVSGLPMDAKPRELYLLFRGCRGYEGALLKMTSKNGKPTSPVGFVTFLSQQDAQDARKMLQGVRFDPECAQVLRLELAKSNTKVARPKQSPPPPQHAALSAAAAGVPQFLAPMQHDLLLDPQSAALFNEQQLLALSLPHLHAAQALQAAYMPASALQQYSQNQLFAAAQMHPAAAAAASLQHSQQASQASTSACSTLFVANLSAEVNEDTLRGVFKAFSGFTRLRLHNKNGSCVAFVEYSDLQKATQAMISLQGFQITANDRGGLRIEYARNKMADVNG”, which “soluble on expression in E. coli” value is on record?
A: soluble

Q: For “MDIISLRKSPQYLEEAIAYFQRKWADENSRMVYDNCFRTCLESESPLPQWYLLINGEGEIIGCAGLATNDFNSRMDLYPWLVALFIEEQYRGHNYGNLLIKAVEEDTRRLGFGNLYLCTTHTGYYEHFNFVYIGDCYHPWGEHTRVYQKEI”, which “soluble on expression in E. coli” value is on record?
A: soluble

Q: Which “soluble on expression in E. coli” value does the source give for “MDINKLKLTPDSSIKEALKIVGQERVRLGIIVDKKDKFLGVISDSNIRKALISGKTLKDSIKDIYTKNPITIKENTSKEQLLKISAKTDIYDFPVLDEKGQILSIKSISSLLKANPNSIIIMAGGLGSRLKELTKDTPKPMLKVGKKPILESIIQRLKNQNFENFIFCVNYKKQIIEDYFQKGQKFGVKISYIKERKKLGTAGALSLIKQEFKESFIVMNADILTELDFNALLKAHKKSKALMSVCVREFEQQIPYGVITQKQGFIENIEEKPTQKFLVSAGIYVLENEILNLIAKNEYLDMPELIKLVLQKGKVNTYIINDYWIDIGRPDEFLKANEDFKLEHHHHHH” here?
A: soluble

Q: For “MDINTDKYKNITRNLEREMINLNPIQRGGILPTESKKIIYEYWDGYSVCDYCSGRLDQIETPPINEFLEDMSKFLGMDITRPTHGARESKYAVMNSICKEGDYVVLDGNAHYTSYVALERAKLNYEKTDIEEYPTFRVIPESYAEKIDMLEDSKKNIGLILLTHVDGNYGNVADVEKVGKIAKSKGYPFLLNCAYSAGRMPIDGKKLNVDFIAASGHKSMAASGPCGLLSINKKYENEVLETSKVNVLKELQMLGCTSRGIPILSLMASFEHLIERVKKWDLELEKTRKVVNELEPLGFKQIGEKPRNHDIIRFETPILDEIAEKDKRRGFFFYEELKKRGIGGIRRGVTKEFKMSVYGLTNTQVDYVINSMKSIINELR”, which “soluble on expression in E. coli” value is on record?
A: not soluble

Q: With “MDISMKQSKRNLWWSVCAGLLFCSWGCSSQVSDKPVTLETLLDEMVSVEEQALYPVPSYTCRQESSYDRASVSPDSAGWFANSDGFGIKRVDTVAGRIEKVMFDEVGPGAITRIWITTIDKRGTWRFYFDGSDQPGWIIPAYDLMRINVPGLGKGMLQAHTSYTPEGKGGNTLFLPIPYARGCKVTFEDEPGVNPTPKYYHINFRKYPEGTQVETFSKEVVERAAQKIAEVDNRLLQPVAGRKGEILREEKSILPSDSLVIPLPAGENAVYEVKFNIRIDNPEQYAQLMRELVFSAGFDGKQTVWVPLSDFSGGGMGAPKVDSWYLTSDGKGNISSRWLMPYQKDGVLKVLNLSSRSVAATMEVNVAPLKWNKDRSLYFYASWRQENGIYIHDKPEEADQCVEWNFATLKGRGVYKGDLLSLYNHAPLWYGEGDEKIWVDDDTFPSHFGTGTEDYYNSSWAPVVPFYTPFGGAPRADLESSHGYNAFYRTRHLDGIPFNKSFKFDIEMLGWKRGEADYATTIYWYGDPEAQVFGTSGIEEARRQLLPAVEASADLEHHHHHH” as the sequence, how does the “soluble on expression in E. coli” value read?
A: soluble

Q: For “MDISSTEIWDAIRRNSFLLYYQPKVDAKTNELIGFEGLIRLKTATAILAPADFFEDIALLNATREMQDFVAETAIEQINQLGGRFSISINIPAHYVVSSNYMTFLYDYVKEHLKYPECLEIEIIERGEITELAVADKNLRKIKKLGVTVSMDDFGKGYSSLAYLRSLPIDIVKTDMSFIALLKTDRKQQIIIQAIVNLCHDLGGKVVTEGVEDIEQVKTLREMKVDYFQGYYFSRPLPMKEIKEKYSIV”, which “soluble on expression in E. coli” value is on record?
A: not soluble

Q: With “MDIVTLKDFYASVLGKRVQETLCGQLNLCWPDLTGKRVMGFGYALPYLSALRMRAQQCLAFMPAGQGALPWPCADKVATALVFEEDLPLPDASIDCILLIHALEYTENSFETLNEIWRVLVPNGQLIVIVPNRSGLWARNACTPFGYGEPYSRQQIVRLFEKTHFVSGSIQEVVHYMPSSGSVSRFFSFFYEPVARHLLPYFGGLLICQAQKRVYQGLEHHHHHH” as the sequence, how does the “soluble on expression in E. coli” value read?
A: not soluble

Q: With “MDKEETKTKPRLLRYEEKKYEDVKPLETQPAEIAEKETLEYKTVRTFSESLKSEKTEDYLRESIIQQHMVSPEPASLKEKGKSRRKKDQTHACPNVRKARPVSYDRTEPKDDDVIRNIIRLREKLGWQTILPQHSLKYGSSKIAIQKITLKKPLEDDGEFVYCLPRKSPKSLYNPYDLQVINIVGSVKE” as the sequence, how does the “soluble on expression in E. coli” value read?
A: soluble

Q: For “MDKFKYAFDNKRYHTWNYYLRNTFGEKVFKVSINAGFTCPNIDGSLGYGGCTYCSKEGSGDFAGNPKDNLISQFYNIKEMMLKKWPHAKYIGYFQAYTNTYAPLEVLKEKYETILELEDVIGLSISTRPDCLPDDIVEYLSELNKRTNLWVELGLQTIHDSTSKIINRGHDYKTFVEGVEKLKSKNIKVVVHIINGLPGEDYNMMMETAKAVGKMGVDGIKIHLLHVIKDTPMEKMLQNGMLTLMEQDEYINLVCDQLEILPETMIIHRLTGDGKRDELVGPIWSLKKWEILNKIDDTLKARNSYQGCKFV”, which “soluble on expression in E. coli” value is on record?
A: soluble

Q: Which “soluble on expression in E. coli” value does the source give for “MDKYRLLLLGGGRGLFDIDEDFMHWIDEFIEEHSNSIEITIVTGKNKKLYDNLTHKKPLKNIKVLGFVNDMYNLIRECDLMLTKPGGATIFEAIQSQTPVLVKMPKVGQEIENAKFIIDKGLGMIYSDDLDLKNIFYKLVSNEFDSIINFMKKNLKEFKTVIHPEKIADYISELIDNHLEHHHHHH” here?
A: not soluble

Q: For “MDLDLIQDLPILNFPPAIKIRANTNRDDDGGGCTTPTSSDHKIPPTTATTPPPPPQKPRPPSTPSSLGIRSCKRKLMTSLSKYEIIVNKDEIERFFSSVYNQTMASSTTTAITVAKRRRSFRSCSRR”, which “soluble on expression in E. coli” value is on record?
A: not soluble
